Reference: patent US20240270813A1 (UNIVERSITY OF PITTSBURGH OF THE COMMONWEALTH SYSTEM OF …, published 2024)
Residue numbers refer to the chain shown, from its start. Values belong to the binder of their own block, whether it stands above or below them.

Molecular target: T1, minor histocompatibility antigen HA-1, immunogenic H variant peptide on HLA-A*02:01 (human)
T1 peptide: VLHDDLLEA
Assay: multimer staining

B1: TCR D (TCR, V domains shown)
Valpha: AQSVAQPEDQVNVAEGNPLTVKCTYSVSGNPYLFWYVQYPNRGLQFLLKYITGDNLVKGSYGFEAEFNKSQTSFHLKKPSALVSDSALYFCAVRAPTSGTYKYIFGTGTRLKVLA
Vbeta: DTGVSQDPRHKITKRGQNVTFRCDPISEHNRLYWYRQTLGQGPEFLTYFQNEAQLEKSRLLSDRFSAERPKGSFSTLEIQRTEQGDSAMYLCASSLVSGNEQFFGPGTRLTVL
- binding result: recognises

B2: TCR E (TCR, V domains shown)
Valpha: B1 Valpha with A95G
Vbeta: B1 Vbeta
- binding result: recognises

B3: TCR AA (TCR, V domains shown)
Valpha: QQQVKQSPQSLIVQKGGISIINCAYENTAFDYFPWYQQFPGKGPALLIAIRPDVSEKKEGRFTISFNKSAKQFSLHIMDSQPGDSATYFCAASSPGTYKYIFGTGTRLKVLA
Vbeta: B1 Vbeta with V97L, S98K, G99N, N100T, Q102A, P106Q, L113V
- binding result: recognises

B4: TCR X (TCR, V domains shown)
Valpha: GENVEQHPSTLSVQEGDSAVIKCTYSDSASNYFPWYKQELGKRPQLIIDIRSNVGEKKDQRIAVTLNKTAKHFSLHITETQPEDSAVYFCVVLGGAGNMLTFGGGTRLMVKP
Vbeta: B1 Vbeta with V97T, S98V, G99S, N100D, E101G, Q102Y, F103T, P106S, L113V
- binding result: recognises

B5: TCR W (TCR, V domains shown)
Valpha: B1 Valpha with A95D
Vbeta: B1 Vbeta with S98Q
- binding result: recognises

Further lines, results first:

- binding result: recognises
B6: TCR Z (TCR, V domains shown)
Valpha: QQVMQIPQYQHVQEGEDFTTYCNSSTTLSNIQWYKQRPGGHPVFLIQLVKSGEVKKQKRLTFQFGEAKKNSSLHITATQTTDVGTYFCAGPKGNTPLVFGKGTRLSVIA
Vbeta: B1 Vbeta with V97T, S98V, G99S, N100Y, F103Y, L113T

- binding result: recognises
B7: TCR Y (TCR, V domains shown)
Valpha: SQQGEEDPQALSIQEGENATMNCSYKTSINNLQWYRQNSGRGLVHLILIRSNEREKHSGRLRVTLDTSKKSSSLLITASRAADTASYFCATAYSGGGADGLTFGKGTHLIIQP
Vbeta: B1 Vbeta with D7N, V97I, S98R, G99A, N100E, E101K, Q102L, P106S, R109Q, T111S

- binding result: recognises
B8: TCR V (TCR, V domains shown)
Valpha: AQTVTQSQPEMSVQEAETVTLSCTYDTSENNYYLFWYKQPPSRQMILVIRQEAYKQQNATENRFSVNFQKAAKSFSLKISDSQLGDTAMYFCALYSGAGSYQLTFGKGTKLSVIP
Vbeta: DTGVSQDPRHKITKRGQNVTFRCDPISEHNRLYWYRQTLGQGPEFLTYFQNEAQLEKSRLLSDRFSAERPKGSFSTLEIQRTEQGDSAMYLCASSLAAGMNTEAFFGQGTRLTVV

- binding result: recognises
B9: TCR F (TCR, V domains shown)
Valpha: GENVEQHPSTLSVQEGDSAVIKCTYSDSASNYFPWYKQELGKRPQLIIDIRSNVGEKKDQRIAVTLNKTAKHFSLHITETQPEDSAVYFCAAHLTGGGNKLTFGTGTQLKVEL
Vbeta: DTGVSQDPRHKITKRGQNVTFRCDPISEHNRLYWYRQTLGQGPEFLTYFQNEAQLEKSRLLSDRFSAERPKGSFSTLEIQRTEQGDSAMYLCASSSRAGGETQYFGPGTRLLVL
